Experimental findings from a protein production outcome set (Wang et al. 2014) are described below.

The series can be described thus: label from the status in PepcDB records.
As to “MTTLTAQQIACVYAWLAQLFSRELDDEQLTQIASAQMAEWFSLLKNEPPLTAAVNELENRIATLTVRDDARLELAADFCGLFLMTDKQAALPYASAYKQDEQEIKRLLVEAGMETSGNFNEPADHLAIYLELLSHLHFSLGEGTVPARRIDSLRQKTLTALWQWLPEFVARCRQYDSFGFYAALSQLLLVLVECDHQNR”, the protein production result is listed as “failed”. “MDFNPIDLILHLDTYLAMLVSNYGVWIYAILFLVIFCETGLVVTPFLPGDSLLFIAGAICATGGMDPWLLGGLLMVAAITGDSTNYVIGRTLGKRLFSNPDSKVFRRDYLDRTHEFYERHGGKTVTLARFLPIVRTFAPFVAGMAKMHYPRFVMFSVVGTVAWVGGLVTLGYFFGNVPFIKKNLSLLVIGIILLSLLPMILGFIRHRLQASAAKQAKAQSD”: the protein production entry is “failed”.

On to “NSDVPENTHLVSKEVQAAFNAKYPQAKDVEWELKGDYAVADFYWDGGEHSAWFNPLSAAWYMTETDVRYENLPEPVLAAHKAGKYADWRVDDVDKLTREGMETLYVIEVEKGESELDLFYSSTGILVKTVVDTGHEEDYDDYLPQPDANGIIAIVKQKYPNATIVEIEREKGLQEVTILDENKEKEVYFNERNEWMGTSWDVQVANLPEAVKKSVMEKYSDYVIDDADYVVTPDNEWYILDLENKQIDKELKVKVDKDGVWL”, for which the protein production result was “not failed”. To “MEGKGSFSENLVKRLQLVKANRSHLAPLIDLLRSKVSKSVKRNKHFFRDYADQIYIVSSGFKEFILPIVTEFGIKEEHVMANTFTFDNDGNIIGCDANNPLSQDKGKIKLMEKLGLTGDVHVIGDGYTDYEIRGAGLASKFYAFTENVSRAAVTAKADSIAPSFDEILFQEKL” belongs “failed”. To “MPGAEQRWPARAALLLVLIAAAGLARGQETPSGPPPRVAMVVGNSAYQNVPALPNPAGDAELVAEKLWESGFEVIETVDADRETMLADLATFRSRLREGSEALFFYAGHGVQIGGRNYLLPVSVAPSSVEDLKAQAIDAQLFLDVMAQSGARLTLVLLDACRNNPFLDIPSDGAEAIATRALSIGASRAAVERGLRDLAAASRGGLAEMSAGRGEALISFATAPGQVAFDGRGRHSPYTSALAGSIDEPGLELVDLFRRVRGAVREATGGQQIAWTASTLESRFYFKPPADDLRSATTGMSTGSDTLGALPPRRVVDRTFWRAIRDTDRLDAFTAYVRTMPDGAFVAEAKEKIRSLGGDPEAIPVSDLSLPERPRGFVLADPAAQADLAATLDRAPASVPIGTGAARIGAAAGRAGWVHVAAAPRLGAVSAGGTRLEAGSVRWMEADQPLDYLPGIGSNGGLDSLRAEALREGGTTEPLEAAVETYVDACDMLAGNPYDSQRVTAGTRQFILDRNHDAAIAVCEIAVARHPEVVRFWAELARSYRAAGRYEEALHWQQKAVDAGYASAMVYLGQMFLDGQAVPQDFDRARELFEAADARGETAALTALAWIHRAGVGVPEDPARALDFYRQGAARGNDWAMTNIGEFYQKGLSVARDPAEAVRWYTAAAKSGELTAQTRLARMYQTGDGIAVDEAQARFWFETAAGRGVPNALTRLGLMYEQGQGVDRDLEAAARLYGRAAAEGDAEAWLRLGRLEASDAPLFDRPERALPLLEKALAAQVPGAARELGRLYETGRGVTKDLARARALYVQEAGANPWAARDAGRAFASDEGAPADPAQAARWYRAAAEGGVPWAALDLGRLYETGRGVPQDRTEALVLYAAAARPGGDARAADAARRAAAGYSAEETIRAAQLLLGRLGAEVGAPDGRIGPATRDALARVFAAQGRAAPGTRIDFDLLAELSAMDEERLP” belongs “failed”; to “MLEEYRKHVAERAAEGIAPKPLDANQMAALVELLKNPPAGEEEFLLDLLTNRVPPGVDEAAYVKAGFLAAIAKGEAKSPLLTPEKAIELLGTMQGGYNIHPLIDALDDAKLAPIAAKALSHTLLMFDNFYDVEEKAKAGNEYAKQVMQSWADAEWFLNRPALAEKLTVTVFKVTGETNTDDLSPAPDAWSRPDIPLHALAMLKNAREGIEPDQPGVVGPIKQIEALQQKGFPLAYVGDVVGTGSSRKSATNSVLWFMGDDIPHVPNKRGGGLCLGGKIAPIFFNTMEDAGALPIEVDVSNLNMGDVIDVYPYKGEVRNHETGELLATFELKTDVLIDEVRAGGRIPLIIGRGLTTKAREALGLPHSDVFRQAKDVAESDRGFSLAQKMVGRACGVKGIRPGAYCEPKMTSVGSQDTTGPMTRDELKDLACLGFSADLVMQSFCHTAAYPKPVDVNTHHTLPDFIMNRGGVSLRPGDGVIHSWLNRMLLPDTVGTGGDSHTRFPIGISFPAGSGLVAFAAATGVMPLDMPESVLVRFKGKMQPGITLRDLVHAIPLYAIKQGLLTVEKKGKKNIFSGRILEIEGLPDLKVEQAFELTDASAERSAAGCTIKLNKEPIIEYLNSNIVLLKWMIAEGYGDRRTLERRIQGMEKWLANPELLEADADAEYAAVIDIDLADIKEPILCAPNDPDDARPLSAVQGEKIDEVFIGSCMTNIGHFRAAGKLLDAHKGQLPTRLWVAPPTRMDAAQLTEEGYYSVFGKSGARIEIPGCSLCMGNQARVADGATVVSTSTRNFPNRLGTGANVFLASAELAAVAALIGKLPTPEEYQTYVAQVDKTAVDTYRYLNFNQLSQYTEKADGVIFQTAV”, “not failed”; to “IDTNLLYVFFTSGSTGIPKGVSIAHKSVIDYTFWVCETFKFDENEILANQAPFYFDNSILDIFSSVKSGATLHLLPNHLFAFPNKILECLEKEKVSTIFWVPSVLIYFANTEALNNFSLNALKKMLFCGEIMPNKQLNIWRKHLPNALFANLYGPTEITDVCSFYIINRTFKDEEL”, “failed”. Consider “MVRVLSAGPELAFRSGDVVAPARTHPLVAAAPSCPMTAAAPRERADRWPRREDLFAIAYYLAAAAVLAWAGYAAWRIGVVLAGGALQQVGVRSCRQRDASRCVNATFDRIALYVVLGQASFFLTTALAAAVTGGEQSPLILPFLGSYFVAVSVVGDRVATRGLLAATAFGAAVLALLPDAVAGPALPALQRGVLTVVSVLGVGALLAPAHAETRRKRDQVARARSEMVSDALSRAQGLEQVGAKVAHELKNPLTGVKALVQLGLRNPAEAASHERLEVVDREVTRMQEIIQNYLSFNRPLQSVNPRQVALGPLVSDTMLVLSARADEARVRLYARGDASLEADPRRLKEALLNLVANAIEATPAGGEVVVEARELSGDEVELVVRDTGRGMPPETLRRIGTPFFTTRDDGTGLGVVLARAVIVQHGGTLRYESEPGSGTKVLVTLPRAAKRSGDVARAAGG”, for which the protein production result was “failed”. To “MNEQPNNETLIQSSSRDLQIIEDDAFSYEGYQVVRGEFFAHTYEPSFTFNANKVSVNTACIKKLPKTDFVQILVNPDEKKLAVRPCQEDEKDSFRWCSATKKRSPRQITCRIFFAKVITLMGWNSSYRYKLLGKLIRSDNELLFVFDLTTPEIYVRTAKDDGKIKTSRTPTYPAEWQNQFGVPVEEHQSNLQINMFDGYAVFGISENTPPEEPKNPAEPQKEETHYEQSSLFTANPMH” belongs “failed”; to “MQPWTQIYTPLGSLWLSALAAAIPILFFFVALAVLRMKGHVAAAVTLALALAVAIFAYGMPAQQAFAAAGFGFAYGLWPIAWIIVTAVFLYKIVVKTGQFDVIRASVLSITDDQRLQMLLIGFAFGAFLEGAAGFGAPVAITAALLVGLGFNPLYAAGLCLIANTAPVAFGAMGIPIIVAGQVTGIDPMHIGAMAGRQLPLLSLAVPFWLVFMMDGAKGVRETWPAALVVGGSFAVTQYFTSNHIGPELPDITSALVSLISLAAFLRVWQPRSASQAAGGTVAAGGTVAMAGFGGGMGAPASRKASPYTFGQTVRAWAPFGILTAIVTVWSLAPFKALFAGNGALAGTVLKFKVPMLDQLVIKSAPIVASPKPYEAVLKLDLLSAVGTAILLTAIISAVLLRMKPSDAITTFKETLLELRRPIASIGLVLAFAFVANYSGMSSTLALLLAGTGAAFPFFSPLLGWLGVFLTGSDTSSNALFCSLQHTTAHQIGVSDTLLVAANTTGGVTGKMISPQSIAVACAATGLVGKESELFRFTVKHSLLFAAIVGVITMIQAYWLTGMIPG”, “failed”. With “MNQPDIKGSCASEFTKVRDAFERNFVLRNEVGAAVAVWVDGDLVVNLWGGSADAGGTRPWQHDTLATVLSGTKALTATCVHQLVDRGELDLHAPVARYWPEFGQAGKQAITLAMVMSHRSGAIGPRGRLGWEQVADWDFVCEQLAAAEPWWQPGAAQGYHMTTFGFILGEVFRRVTGRTVGQYLRTEIAEPLGADVHIGLHPGEQLRCADLVDKPHIRQLLADVQAPGYPTSLNEHPKAALSVSMGFAPDDELGSNDLQLWRQIEFPGTNGQVSALGLATFYNGLAQEKLLSREHMELVRVSQGGFDTDLVLGPRVADHGWGLGYMLNQRGVNGPNPRIFGHGGLGGSFGFVDLEHRIGYAYVMNRFDATKANADPRSVVLSNEVYAALGVNRS” the entry was “failed”. On to “MLLFTPGPVAINEEMRTSFSQPMPHHRTKDFEKIFQSVRENLKKMTGLEEVLLLSSSGTGAMEASVISLCQKELLFVNAGKFGERFGKIAKAHSIKAHELVYEWDTPAQVDEILSVLKANPNIDAFCIQACESSGGLRHPVEKIAQAIKETNPNVFVIVDAITALGVEPLEITHVDALIGGSQKAFMLPPAMSLVALSQNAIERIEERNVGFYFNLKSELKNQRNNTTSYTAPILHTLGLQRYFELVQNLGGFEALYRETKKAALATQKAVLALGLKIFPKSPSLSMTTIVNEHAKELRNLLKEKYQVQFAGGQEPYKDALIRINHMGIIPVYKSAYALNALELALNDLDLREFDGVANATFLKQYYGI”, for which the protein production entry was “failed”.

Consider “MSPSCPMCTKWLDEPEFRIAELEHTRVMLNRDQFFPGYTFVFTREHVTELFHLSPPVRQGVMEEVTAVAAALYDLFQPAKMNYELLGNMVPHMHWHLVPRFATDPLWPRPIWSEPHAETLLAPEEYAGRIALIRDRLGL”, for which the protein production result is given as “failed”.

Consider “MSFIRTFYGDIAPEQLGFTYSHEHIVCVPAYWQERDADDLLLDDKEKSQLDVQDFADLGGKTIVDATAVDYGRRVLDVAQISKETGIQIVGTAGFNKSFLWDGKIKPELKPIIGDFETYYEWIENTSIDKLTEFVVNEVENGLEGTPYKAGQVKFGTGYNMITPLEEKTIRAVARAHHETKAPIHSHTEAGTMALEQIEILKQENIPLEYLSIGHMDRNLDPYYHKQVAKTGAFMSFDGIAKIKYAPESARIAAILYLVSEGFEDQILVSGDTARKTYYKHYGHGPGLEYIAKKWVPRFIDEANEKGFDGEKLVKKFFVDNPARCFTFKK”, for which the protein production result is “failed”.

In the case of “MFFSKLFRKDAASCLEKGEKLLAAGRFAEARLSLEDALERLDAHSPEGATTAAVIREKMVVAGNRLAEMNLQEAEHCLKSGEFAKAEEHLNLTLDLADDVTIRDKAVKSFALLEKQIPHVHHHEKKGGCGGCGGSTSQHSENIELEDDGLNDMDRFELLVRPLPGDLPERYADLGEEFAGGYLAAHGGDQMTAEKVFERLLASGESDILLYELAILSHQGGDGRRCETLLRRALALNDTNPLCNLSLVQLLTENGRFTEAVPLLERMVERDILPDQAGMFLGEIYRVQGESDRAIAQFSQLLSTPLKREAAERLVGLLETTGRSQEAALVAKQYLKGCC”, the protein production result is recorded as “failed”. To “MVKLIHTLADHGDDVNCCAFSFSLLATCSLDKTIRLYSLRDFTELPHSPLKFHTYAVHCCCFSPSGHILASCSTDGTTVLWNTENGQMLAVMEQPSGSPVRVCQFSPDSTCLASGAADGTVVLWNAQSYKLYRCGSVKDGSLAACAFSPNGSFFVTGSSCGDLTVWDDKMRCLHSEKAHDLGITCCDFSSQPVSDGEQGLQFFRLASCGQDCQVKIWIVSFTHILGFELKYKSTLSGHCAPVLACAFSHDGQMLVSGSVDKSVIVYDTNTENILHTLTQHTRYVTTCAFAPNTLLLATGSMDKTVNIWQFDLETLCQARSTEHQLKQFTEDWSEEDVSTWLCAQDLKDLVGIFKMNNIDGKELLNLTKESLADDLKIESLGLRSKVLRKIEELRTKVKSLSSGIPDEFICPITRELMKDPVIASDGYSYEKEAMENWISKKKRTSPMTNLVLPSAVLTPNRTLKMAINRWLETHQK” belongs “failed”.
